The target in this assay is T1, MLH1 p.Arg659Leu (human), P40692.
T1 chain: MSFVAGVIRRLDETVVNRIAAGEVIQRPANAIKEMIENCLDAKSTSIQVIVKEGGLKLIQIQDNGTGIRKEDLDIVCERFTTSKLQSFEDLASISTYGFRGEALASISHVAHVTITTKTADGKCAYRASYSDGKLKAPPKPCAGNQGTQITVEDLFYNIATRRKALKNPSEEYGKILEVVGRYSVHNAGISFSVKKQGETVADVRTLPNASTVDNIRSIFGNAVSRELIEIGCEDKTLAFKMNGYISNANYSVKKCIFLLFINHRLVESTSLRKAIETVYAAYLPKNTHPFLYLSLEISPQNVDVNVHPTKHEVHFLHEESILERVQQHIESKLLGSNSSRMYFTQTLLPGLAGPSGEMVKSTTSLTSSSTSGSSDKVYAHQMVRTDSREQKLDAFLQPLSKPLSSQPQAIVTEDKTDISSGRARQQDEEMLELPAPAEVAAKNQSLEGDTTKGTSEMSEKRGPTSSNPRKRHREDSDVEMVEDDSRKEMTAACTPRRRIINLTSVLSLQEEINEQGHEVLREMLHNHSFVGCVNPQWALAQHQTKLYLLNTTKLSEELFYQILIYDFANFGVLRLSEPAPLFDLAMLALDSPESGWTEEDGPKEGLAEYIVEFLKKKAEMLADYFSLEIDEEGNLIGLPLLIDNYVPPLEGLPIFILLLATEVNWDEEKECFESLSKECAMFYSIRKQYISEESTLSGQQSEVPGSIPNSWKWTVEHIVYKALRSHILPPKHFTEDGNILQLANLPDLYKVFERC
The experiment in a line: co-IP. The note with it: remark: other sources report otherwise.

Consider one molecule from paper PMC2908215.

B1: PMS2, P54278 1-862 (natural protein)
chain: MERAESSSTEPAKAIKPIDRKSVHQICSGQVVLSLSTAVKELVENSLDAGATNIDLKLKDYGVDLIEVSDNGCGVEEENFEGLTLKHHTSKIQEFADLTQVETFGFRGEALSSLCALSDVTISTCHASAKVGTRLMFDHNGKIIQKTPYPRPRGTTVSVQQLFSTLPVRHKEFQRNIKKEYAKMVQVLHAYCIISAGIRVSCTNQLGQGKRQPVVCTGGSPSIKENIGSVFGQKQLQSLIPFVQLPPSDSVCEEYGLSCSDALHNLFYISGFISQCTHGVGRSSTDRQFFFINRRPCDPAKVCRLVNEVYHMYNRHQYPFVVLNISVDSECVDINVTPDKRQILLQEEKLLLAVLKTSLIGMFDSDVNKLNVSQQPLLDVEGNLIKMHAADLEKPMVEKQDQSPSLRTGEEKKDVSISRLREAFSLRHTTENKPHSPKTPEPRRSPLGQKRGMLSSSTSGAISDKGVLRPQKEAVSSSHGPSDPTDRAEVEKDSGHGSTSVDSEGFSIPDTGSHCSSEYAASSPGDRGSQEHVDSQEKAPKTDDSFSDVDCHSNQEDTGCKFRVLPQPTNLATPNTKRFKKEEILSSSDICQKLVNTQDMSASQVDVAVKINKKVVPLDFSMSSLAKRIKQLHHEAQQSEGEQNYRKFRAKICPGENQAAEDELRKEISKTMFAEMEIIGQFNLGFIITKLNEDIFIVDQHATDEKYNFEMLQQHTVLQGQRLIAPQTLNLTAVNEAVLIENLEIFRKNGFDFVIDENAPVTERAKLISLPTSKNWTFGPQDVDELIFMLSDSPGVMCRPSRVKQMFASRACRKSVMIGTALNTSEMKKLITHMGEMDHPWNCPHGRPTMRHIANLGVISQN
Molecule B1 registered a co-precipitated PMS2 in relation to wild-type (% of wild-type) of 77.
